Experimental data from patent publication US20140336130A1 (PHIGENIX, INC., priority 2011, published 2014).

Experiments:
Format in all cases: cell-based, human
DU145 [1] = assay: Pan-caspase detection (FAM-VAD-FMK, confocal), DU145; settings: DEFB1 (hBD-1) induction 24 h
Description: (§1) Detection of caspase activity in the prostate cancer cell lines was performed using APO LOGIX™ Carboxyfluorescin Caspase detection kit (Cell Technology, Mountain View, Calif.). Active caspases were detected through the use of a FAM-VAD-FMK inhibitor that irreversibly binds to active caspases. […] Next, 10 μl of a 30× working dilution of carboxyfluorescein labeled peptide fluoromethyl ketone (FAM-VAD-FMK) was added to 300 μl of media and added to each 35 mm dish. Cells were then incubated for 1 hour at 37° C. under 5% CO2. Then, the medium was aspirated and the cells were washed twice with 2 ml of a 1× Working dilution Wash Buffer. Cells were viewed under differential interference contrast (DIC) or under laser excitation at 488 nm. The fluorescent signal was analyzed using a confocal microscope (Zeiss LSM 5 Pascal) and a 63×DIC oil lens with a Vario 2 RGB Laser Scanning Module.
(§2) Detection of caspase activity in the prostate cancer cell lines was performed s described in Example 1.
(§3) Detection of caspase activity in the prostate cancer cell lines was performeds described in Example 1.
(§4) Detection of caspase activity in the prostate cancer cell lines was performed as described in Example 1.

PC3 [2] = assay: Phase contrast microscopy of cell growth, PC3; settings: DEFB1 induction 48 h
Description: (§5) Cell morphology was analyzed by phase contrast microscopy. […] The following day plasmid-containing cells were induced for a period of 48 h with media containing 10 μM Ponasterone A, while control cells received fresh media. The cells were then viewed under an inverted Zeiss IM 35 microscope (Carl Zeiss, Germany). Phase contrast pictures of a field of cells were obtained using the SPOT Insight Mosaic 4.2 camera (Diagnostic Instruments, USA). Cells were examined by phase contrast microscopy under 32× magnification and digital images were stored as uncompressed TIFF files and exported into Photoshop CS software (Adobe Systems, San Jose, Calif.) for image processing and hard copy presentation.
(§6) The effect of PAX2 knock-down on cell growth was analyzed by phase contrast microscopy as described in Example 1.
(§7) The effect of PAX2 knockdown on cell number was analyzed by phase contrast microscopy as described in Example 1.

PC3 [3] = assay: Membrane integrity AO/EtBr dual staining, PC3
Description: (§8) Acridine orange (AO)/ethidium bromide (EtBr) dual staining was performed to identify changes in cell membrane integrity, as well as apoptotic cells by staining the condensed chromatin. AO stains viable cells as well as early apoptotic cells, whereas EtBr stains late stage apoptotic cells that have lost membrane permeability. Briefly, cells were seeded into 2 chamber culture slides (BD Falcon, USA). […] In order to determine the effect of PAX2 inhibition on membrane integrity, separate culture slides containing DU145, PC3 and LNCaP were treated with PAX2 siRNA and incubated for 4 days. […] Fluorescence was viewed by a Zeiss LSM 5 Pascal Vario 2 Laser Scanning Confocal Microscope (Carl Zeiss Jena, Germany). […] Slides were analyzed under 40× magnification and digital images were stored as uncompressed TIFF files and exported into Photoshop CS software (Adobe Systems, San Jose, Calif.) for image processing and hard copy presentation. […]
(§9) Fluorescence was viewed by a Zeiss LSM 5 Pascal Vario 2 Laser Scanning Confocal Microscope (Carl Zeiss). […] Slides were analyzed under 40× magnification and digital images were stored as uncompressed TIFF files and exported into Photoshop CS software (Adobe Systems) for image processing and hard copy presentation. […]

LNCaP [4] = assay: Membrane integrity AO/EtBr dual staining, LNCaP; settings: hBD-1 induction 48 h
Description: as §8, §9

DU145 [5] = assay: Phase contrast microscopy of cell growth, DU145; settings: DEFB1 induction 48 h
Description: as §5, §6, §7

PC3 [6] = assay: Pan-caspase detection (FAM-VAD-FMK, confocal), PC3; settings: DEFB1 (hBD-1) induction 24 h
Description: as §1, §2, §3, §4

PC3 [7] = assay: Flow cytometry Annexin V-FITC/PI, PC3
Description: The remaining attached cells were harvested by trypsinization and combined with the detached cells and PBS. The cells were then pelleted at 4° C. (500×g) for 5 min, washed twice in PBS, and resuspended in 100 μl of 1× Annexin binding buffer (0.1 M Hepes/NaOH at pH 7.4, 1.4 M NaCl, 25 mM CaCl2) containing 5 μl of Annexin V-FITC and 5 μl of PI. The cells were incubated at RT for 15 min in the dark, then diluted with 400 μl of 1× Annexin binding buffer and analyzed by FACscan (Becton Dickinson, San Jose, Calif.). All reactions were performed three times.

DU145 [8] = assay: Flow cytometry Annexin V-FITC/PI, DU145
Description: The remaining attached cells were harvested by trypsinization and combined with the detached cells and PBS. The cells were then pelleted at 4° C. (500×g) for 5 min, washed twice in PBS, and resuspended in 100 μl of 1× Annexin binding buffer ([…]) containing 5 μl of Annexin V-FITC and 5 μl of PI. The cells were incubated at RT for 15 min in the dark, then diluted with 400 μl of 1× Annexin binding buffer and analyzed by FACscan (Becton Dickinson, San Jose, Calif.). All reactions were performed three times.
PC3 and DU145 cells transfected with the hBD-1 expression system were grown in 60-mm dishes and induced for 12, 24, and 48 h with 10 μM Pon A. The cells were harvested and analyzed by flow cytometry as described in Example 1.

DU145 [9] = assay: Membrane integrity AO/EtBr dual staining, DU145
Description: as §8, §9

LNCaP [10] = assay: MTT cell viability assay, LNCaP; settings: DEFB1 (hBD-1) induced with 10 μM PonA, 24-72 h
Description: Reactions were performed three times in triplicate.
DU145, PC3 and LNCaP cells […] were transfected with 0.5 μg of the PAX2 siRNA pool or control siRNA pool using Codebreaker transfection reagent according to the manufacturer's protocol (Promega). Next, cell suspensions were diluted and seeded onto a 96-well plate at 1-5×10^3 cells per well and allowed to grow for 2-, 4- or 6 days. After culture, cell viability was determined by measuring the conversion of 3-[4,5-dimethylthiazol-2yl]-2,5 diphenyl tetrazolium bromide, MTT (Promega), to a colored formazan product. Absorbance was read at 540 nm on a scanning multiwell spectrophotometer.
(§10) To examine the effects of hBD-1 on cell growth, metabolic 3-[4,5-dimethylthiazol-2yl]-2,5-diphenyl tetrazolium bromide (MTT) assay was performed. DU145, LNCaP, PC3 and PC3/AR+ cells co-transfected with pvgRXR plasmid and pIND/hBD-1 construct or control pvgRXR plasmid were seeded onto a 96-well plate at 1-5×10^3 cells per well. Twenty-four hours after seeding, fresh growth medium was added containing 10 μM Pon A daily to induce hBD-1 expression for 24, 48 and 72 h after which the MTT assay was performed according to the manufacturer's instructions (Promega). Reactions were performed three times in triplicate.
MTT cytotoxicity assay was performed as described in Example 1.

LNCaP [11] = assay: Phase contrast microscopy of cell growth, LNCaP; settings: DEFB1 induction 48 h
Description: as §5, §6, §7

LNCaP [12] = assay: Pan-caspase detection (FAM-VAD-FMK, confocal), LNCaP; settings: DEFB1 (hBD-1) induction 24 h
Description: as §1, §2, §3, §4

PC3/AR+ = assay: MTT cell viability assay, PC3/AR+; settings: PC3 with ectopic AR expression; hBD-1 induced
Description: as §10

B1: DEFB1: human beta defensin-1 (SEQ ID NO:63), expressed in cells from Ponasterone A inducible pIND/DEFB1 construct (protein, listed as Homo sapiens)
chain: MRTSYLLLFTLCLLLSEMASGGNFLTGLGHRSDHYNCVSSGGQCLYSACPIFTKIQGTCYRGKAKCCK
- caspase activity (green FAM-VAD-FMK staining) (DU145 [1]): green staining
- cell number (PC3 [2]): significant reduction in cell number
- membrane integrity (AO/EtBr staining) (PC3 [3]; DEFB1 (hBD-1) induction 24 h): accumulation of EtBr in the cytoplasm
- membrane integrity (AO/EtBr staining) (PC3 [3]; DEFB1 (hBD-1) induction 48 h): possessed condensed nuclei and appeared yellow
- membrane integrity (AO/EtBr staining) (LNCaP [4]): no observable alterations to membrane integrity
- cell number (DU145 [5]): significant reduction in cell number
- caspase activity (green FAM-VAD-FMK staining) (PC3 [6]): green staining
- number of apoptotic cells (annexin V/PI, lower and upper right quadrants) (PC3 [7]; DEFB1 (hBD-1) induction 12 h): 10%
- number of apoptotic cells (annexin V/PI, lower and upper right quadrants) (PC3 [7]; DEFB1 (hBD-1) induction 24 h): 20%
- number of apoptotic cells (annexin V/PI, lower and upper right quadrants) (DU145 [8]; DEFB1 (hBD-1) induction 12 h): 12%
- number of apoptotic cells (annexin V/PI, lower and upper right quadrants) (DU145 [8]; DEFB1 (hBD-1) induction 24 h): 34%
- number of apoptotic cells (annexin V/PI, lower and upper right quadrants) (DU145 [8]; DEFB1 (hBD-1) induction 48 h): 59%
- membrane integrity (AO/EtBr staining) (DU145 [9]; DEFB1 (hBD-1) induction 24 h): accumulation of EtBr in the cytoplasm
- membrane integrity (AO/EtBr staining) (DU145 [9]; DEFB1 (hBD-1) induction 48 h): possessed condensed nuclei and appeared yellow
- effect on cell viability (LNCaP [10]): no significant effect
- cell proliferation (LNCaP [11]): no effect on cell proliferation
- caspase activity (green FAM-VAD-FMK staining) (LNCaP [12]): no green staining
- hBD-1 cytotoxicity, PC3/AR+ compared with PC3 (PC3/AR+): no difference
